Data as given in patent publication US20060240110A1 (published 2006).

Columns and labels:
[1] = target: T1, streptavidin (SA chip surface) (UniProt P22629 37-163, limits assumed); experiment: SPR, Biacore 3000, streptavidin-coated chip
T1 construct: Commercial chip coating; the construct is not described; also called streptavidin-coated chip

[2] = target: the molecule itself; experiment: circular dichroism, concentration dependence of MRE222 in PBS fitted for dimerization (coiled-coil self-association)

T1 sequence (P22629 37-163 limits assumed): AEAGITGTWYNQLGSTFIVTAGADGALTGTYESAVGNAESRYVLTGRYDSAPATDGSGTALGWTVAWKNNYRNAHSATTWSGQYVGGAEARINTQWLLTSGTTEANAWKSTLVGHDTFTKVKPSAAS

B1: PF4ZIP (peptide)
peptide: CGGRMKQLEDKVKKLLKKNYHLENEVARLKKLVG
notes: The entry is the single chain; the Kd is for its self-association into a coiled-coil dimer; also called PF4ZIP peptide
- binding result [1]: no binding
- Kd [2]: 3.48 µM
